Legend:
human alpha-thrombin [1] = target: T1, human alpha-thrombin (Homo sapiens, UniProt P00734;P00734 315-363;364-622); assay: potentiometric aptasensor; SWCNT transducer; LOD 80 nM, 8.03 mV/decade (not a Kd); PBS listed as reagent; salt, pH and temperature of the potentiometric assay not given in the material
human alpha-thrombin [2] = target: T1, human alpha-thrombin; assay: potentiometric aptasensor; PANI transducer; LOD 71 nM, 2.97 mV/decade (not a Kd); PBS listed as reagent; salt, pH and temperature of the potentiometric assay not given in the material

Binder	binding result (human alpha-thrombin [1])	binding result (human alpha-thrombin [2])
GGTTGGTGTGGTTGG (structured_DNA, 5'-NH2, coupled to SWCNT carboxyl groups) [TBA 15-mer, 5'-NH2 (SWCNT sensor)]	binds	–
GGTTGGTGTGGTTGG (structured_DNA, 5'-SH, coupled to polyaniline) [TBA 15-mer, 5'-SH (PANI sensor)]	–	binds
